The target in assay [1] is His-tagged SARS-CoV-2 RBD (SARS-CoV-2 Wuhan-Hu-1 (MN908947), UniProt P0DTC2). The assay can be described thus: BLI; Octet RED 96e; anti-RBD IgGs immobilised on AR2G biosensors, RBD as the analyte in serial dilutions; 1:1 global fitting model. The settings on record: both partners purified. On the technique in general: In BLI a coated tip is dipped into the sample, and binding shifts an interference pattern.

For assay [2], the target named is SARS-CoV-2 spike on intact virus (SARS-CoV-2/human/AUS/VIC01/2020) (SARS-CoV-2, isolate …, strain). The assay can be described thus: cell-based or functional assay.

Experimental findings from publication PMC7891125 (Cell, 2021) are described below.

In general, Kd refers to the constant that tells how readily two partners part at equilibrium. Higher therefore signals lower affinity.

B1: mAb 316, de-glycosylated (antibody, V domains shown)
VH: not shown
VL: QAVLTQPPSASGSPGQSVTISCTGTSSDVGGYNYVSWYQQHPGKAPKLMIYEVSKRPSGVPDRFSGSKSGNTASLTVSGLQAEDEADYYCSSYAGSNHWVFGGGTKLTVL
As to B1, the Kd in assay [1] is 1 nM.

B2: mAb 316 (antibody, V domains shown)
VH: not shown
VL: B1 VL
As for B2, binding in assay [1] was characterised by a dissociation constant (Kd) of 2 nM.

B3: mAb 159 (antibody, V domains shown)
VH: EVQLVESGGGVVQPGRSLRLSCAASGFTFSSYGMHWVRQAPGKGLEWVALISYDGGNRYYADSVKGRFTISRDNSKNTLYLQMNRLRAEDTAMYYCAKDRDDGWDWYYFMDVWGKGTTVTVSS
VL: DIQLTQSPGTLSLSPGERATLSCRASQSISGNYLAWYQHKPGQAPRLLIYGASTRATGIPDRFSGSGSGTDFTLTISRLEPEDFAVYYCQQYGSSYTFGQGTKVEIK
Turning to B3, the “FRNT, neutralisation of authentic SARS-CoV-2 on Vero cells, IC50” value in assay [2] turned out to be 5 ng/mL.
